Laboratory results from US20050013867A1, “Use of proton sequestering agents in drug formulations” (priority 2001, published 2005).
Read-outs that look alike come from different tables or passages of the source.

Tests used:
[1] = aqueous solution, general indicator of proton affinity, cited from earlier work
[2] = Degradation rate of parathyroid hormone in solution ± disodium citrate, by high pressure liquid chromatography; format: physicochemical; conditions: 1 mg/mL parathyroid hormone ± disodium citrate, pH 3, 40° C.
Method: Determine the degradation rates of parathyroid hormone (1 mg/mL; 0.24 mM)±disodium citrate at pH 3 at 40° C. In separate aliquots, incubate with the following amounts of disodium citrate ([…]; 57.3 μg/mL, 0.24 mM; and 5.73 μg/mL, 0.024 mM). Include a control aliquot containing parathyroid hormone lacking disodium citrate. High pressure liquid chromatography is used to measure the degradation of parathyroid hormone at various time points.

For parathyroid hormone, the “pKa of C-terminal carboxylate” value [1] is given as “≈ 3.5”, the “pKa of carboxylate sidechains of aspartic and glutamic acid” value [1] is given as “≈ 4.8” and the “pKa of C-terminal carboxylate” value ([1]; listed as PTH) is given as 3.5. For the same substance, the “pKa of carboxylate sidechains of aspartic and glutamic acid” value ([1]; listed as PTH) was 4.8 and the “retention of activity (degradation by HPLC)” value [2] was “retains more activity in the citrate solution”.
